From US20100254979A1 (CISTHERA, published 2010) come the findings set out here.

Assay [1] concerns the target PAI-1 (immobilised antigen of the P-ELISA of FIG. 13, species not stated). Kind of assay: P-ELISA on immobilised biotinylated PAI-1 (species not stated), A450; antibody without plasma, with or without EDTA. In general terms: An ELISA detects its analyte on a solid surface through an enzyme-linked reagent.
Assay [2] shares this target. Kind of assay: P-ELISA on immobilised biotinylated PAI-1 (species not stated), A450; antibody spiked into plasma with EDTA.
For assay [3], the target named is PAI-1 (antigen of Example 11, species not stated) (Homo sapiens (Human)) (UniProt P05121). The assay is described as follows: biosensor kinetics, 25 C, global 1:1 fit.
Another assay concerns the target T1, mouse PAI-1 (mouse, UniProt P22777 23-402, limits assumed, n-terminal biotin label in the P-ELISA).
T1 construct: also called murine PAI-1
T1 sequence (looked up): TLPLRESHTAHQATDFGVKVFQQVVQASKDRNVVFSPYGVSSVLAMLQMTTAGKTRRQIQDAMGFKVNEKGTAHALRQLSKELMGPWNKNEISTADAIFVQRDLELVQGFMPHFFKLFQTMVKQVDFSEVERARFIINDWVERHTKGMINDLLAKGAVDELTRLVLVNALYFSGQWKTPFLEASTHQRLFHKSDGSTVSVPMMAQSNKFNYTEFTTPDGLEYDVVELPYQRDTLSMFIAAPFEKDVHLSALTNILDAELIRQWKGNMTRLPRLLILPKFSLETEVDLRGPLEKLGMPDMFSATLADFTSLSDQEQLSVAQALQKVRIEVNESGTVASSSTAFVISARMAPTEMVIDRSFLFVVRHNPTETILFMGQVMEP
The assay is described as follows: P-ELISA.

The target of assay [4] is PAI-1 (antigen of Example 11, species not stated) (Homo sapiens (Human)) (UniProt P05121). Kind of assay: biosensor kinetics, mAb captured on anti-human IgG surface at 5 densities, 25 C, global 1:1 fit.
The target of the next assay is T2, rat PAI-1 (rat, UniProt P20961 24-402, n-terminal biotin label in the P-ELISA).
T2 sequence (looked up): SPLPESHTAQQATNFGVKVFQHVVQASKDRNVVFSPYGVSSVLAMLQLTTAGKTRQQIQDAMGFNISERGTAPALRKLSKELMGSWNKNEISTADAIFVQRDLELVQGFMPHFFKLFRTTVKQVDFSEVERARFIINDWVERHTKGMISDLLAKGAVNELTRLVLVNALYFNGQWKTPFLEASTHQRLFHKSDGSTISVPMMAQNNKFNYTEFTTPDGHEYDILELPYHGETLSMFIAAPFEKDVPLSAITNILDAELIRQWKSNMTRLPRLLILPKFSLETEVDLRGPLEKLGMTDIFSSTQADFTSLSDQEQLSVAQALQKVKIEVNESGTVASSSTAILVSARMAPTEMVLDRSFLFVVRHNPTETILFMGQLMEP
Kind of assay: P-ELISA: biotinylated PAI-1 (panel title: Rat PAI-1) on Neutravidin-coated plate, HRP-conjugated secondary antibody, O.D. 450. As to the method: All reagents are brought to room temperature (18-23° C.) and dilutions are made in Wash Buffer (1× TBS, 0.1% BSA, 0.05% Tween). Briefly, protocol steps are as follows: [0952] Add 100 μL of Neutravidin™ Pierce #31000 (0.5 μg/ml in TBS) to 96-well Immulon-4 plates. [0953] Incubate 1 hour at room temperature (RT). [0954] Wash wells 3 times with 200 μl Wash Buffer. [0955] Add 50 μL of biotinylated biomolecule (0.06 nM) Incubate 1 hour at RT. [0956] Wash plate 3 times in Wash Buffer. [0957] Add 100 μL of 1° Ab Incubate 30 min RT [0958] Wash plate 3 times in Wash Buffer. [0959] Add 50 μL of 2° Ab-HRP (1:10,000) Incubate 30 min RT [0960] Wash plate 4 times in Wash Buffer. [0961] Add 100 μl TMB Reagent (substrate). Incubate at room temperature. [0962] Add 100 μL of 2 M Sulfuric Acid to stop development of the substrate. [0963] Plates were read using a 450 nm filter with a 615-620 nm filter as the reference.
Binding of CT140 to rat, mouse, rabbit and human PAI-1 was determined by P-ELISA (see FIG. 12). The relative affinity of CT140 is human=rabbit>mouse>rat (FIG. 12A, FIG. 12B, FIG. 12C and FIG. 12D, respectively).

The target in assay [5] is human PAI-1 (plasminogen activator inhibitor-1) (human, UniProt P05121 24-402, n-terminal biotin label in the P-ELISA). The assay is described as follows: cell-based or functional assay.

Some results are limits rather than exact numbers.

PAI-1 (immobilised antigen of the P-ELISA of FIG. 13, species not stated), sequence (P05121 24-402): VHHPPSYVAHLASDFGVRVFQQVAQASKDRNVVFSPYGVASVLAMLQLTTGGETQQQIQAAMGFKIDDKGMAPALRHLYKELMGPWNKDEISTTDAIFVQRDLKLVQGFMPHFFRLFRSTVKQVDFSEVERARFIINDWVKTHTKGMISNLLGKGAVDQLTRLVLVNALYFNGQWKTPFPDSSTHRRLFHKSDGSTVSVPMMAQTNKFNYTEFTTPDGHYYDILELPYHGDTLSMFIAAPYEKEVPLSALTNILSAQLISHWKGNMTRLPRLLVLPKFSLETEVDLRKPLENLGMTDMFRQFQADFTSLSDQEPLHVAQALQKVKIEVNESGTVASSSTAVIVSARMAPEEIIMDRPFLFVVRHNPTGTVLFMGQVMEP
human PAI-1 (plasminogen activator inhibitor-1), sequence (P05121 24-402 limits assumed): as the sequence (P05121 24-402) above

B1: murine monoclonal antibody 33B8 (MA-33B8) (antibody, V domains shown)
VH: QIQLVQSGPELKKPGKTVTISCKASGYTFTNYGMNWVKQAPGKGLKWMGWINTYTGEPTYTDDFKGRFAFSLDTSASTAYLQISNLKNEDTATYFCAKDVSGFVFDYWGQGTTVTVSS
VL: DIVMTQSPSSLAVSVGEKVTMSCKSSQSLLNIIKQKNCLAWYQQKPGQSPKLLIYWASTRESGVPDRFTGSGSGTDFTLTISSVKAEDLAVYYCQQYYSYPYTFGGGTKLEIK
As usually defined, the EC50 (read off the curve) is the midpoint of the concentration-response curve. Broadly, the Kd is the constant that tells how readily two partners part at equilibrium. Read a high Kd as a looser complex. In general, koff refers to the first-order rate constant of dissociation. One may read the kon as a measure of how fast the partners come together. The low end stands for slow association, the high end for fast association. The molecule B1 gave an EC50 (read off the curve) in assay [1] of 0.1 µg/mL. The same molecule returned an EC50 (read off the curve) in assay [2] of 0.4 µg/mL. In assay [3], the Kd is 8.01 nM, the koff stood at 0.00314 s⁻¹ and the kon was 393000 M⁻¹ s⁻¹.

B2: CT140 (humanized 33B8 anti-PAI-1 antibody, IgG4 with IgG1 hinge) (antibody, V domains shown)
VH: QVQLVQSGAEVKKPGASVKVSCKASGYTFTNYGMNWVRQAPGQGLEWMGWINTYTGEPTYTDDFKGRFTMTLDTSISTAYMELSRLRSDDTAVYYCAKDVSGFVFDYWGQGTLVTVSS
VL: DIVMTQSPDSLAVSLGERATINCKSSQSLLNIIKQKNCLAWYQQKPGQPPKLLIYWASTRESGVPDRFSGSGSGTDFTLTISSLQAEDVAVYYCQQYYSYPYTFGQGTKLEIKR
notes: The IgG4 hinge was replaced by that of IgG1; also called hP-1; humanized mAb CT140
In the case of B2, the “fold greater affinity relative to the parent mouse anti-PAI-1” value with mouse PAI-1 was greater than 10 fold. Besides, in assay [4], the Kd came out at 0.015 nM, the koff stood at 8e-06 s⁻¹ and the kon came to 530000 M⁻¹ s⁻¹. Besides, in the assay with rat PAI-1, the binding result is reported as “binds”. Besides, the “EC50 (read off the curve)” value in assay [5] is roughly 10 µg/mL.
